Source: US20240209100A1 (DIAGONAL THERAPEUTICS, published 2024)

T1: IL-18 receptor (IL-18Rα/IL-18Rβ) overexpressed on HEK-Blue IL-18 cells (Homo sapiens (Human), UniProt Q13478 19-541; O95256 20-599)
T1 sequence 1: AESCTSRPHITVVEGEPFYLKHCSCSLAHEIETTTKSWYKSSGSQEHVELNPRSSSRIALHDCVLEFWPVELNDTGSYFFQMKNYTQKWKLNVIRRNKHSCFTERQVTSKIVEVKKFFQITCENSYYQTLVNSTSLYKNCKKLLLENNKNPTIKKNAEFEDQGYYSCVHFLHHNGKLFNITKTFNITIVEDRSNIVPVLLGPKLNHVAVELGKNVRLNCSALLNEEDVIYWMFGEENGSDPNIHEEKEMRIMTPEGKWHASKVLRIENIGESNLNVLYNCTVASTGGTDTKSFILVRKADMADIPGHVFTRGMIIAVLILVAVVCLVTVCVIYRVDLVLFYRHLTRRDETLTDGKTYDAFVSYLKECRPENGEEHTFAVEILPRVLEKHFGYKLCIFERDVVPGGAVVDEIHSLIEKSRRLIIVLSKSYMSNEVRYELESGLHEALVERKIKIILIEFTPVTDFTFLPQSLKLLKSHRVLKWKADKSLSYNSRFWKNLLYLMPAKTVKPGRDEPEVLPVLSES
T1 sequence 2: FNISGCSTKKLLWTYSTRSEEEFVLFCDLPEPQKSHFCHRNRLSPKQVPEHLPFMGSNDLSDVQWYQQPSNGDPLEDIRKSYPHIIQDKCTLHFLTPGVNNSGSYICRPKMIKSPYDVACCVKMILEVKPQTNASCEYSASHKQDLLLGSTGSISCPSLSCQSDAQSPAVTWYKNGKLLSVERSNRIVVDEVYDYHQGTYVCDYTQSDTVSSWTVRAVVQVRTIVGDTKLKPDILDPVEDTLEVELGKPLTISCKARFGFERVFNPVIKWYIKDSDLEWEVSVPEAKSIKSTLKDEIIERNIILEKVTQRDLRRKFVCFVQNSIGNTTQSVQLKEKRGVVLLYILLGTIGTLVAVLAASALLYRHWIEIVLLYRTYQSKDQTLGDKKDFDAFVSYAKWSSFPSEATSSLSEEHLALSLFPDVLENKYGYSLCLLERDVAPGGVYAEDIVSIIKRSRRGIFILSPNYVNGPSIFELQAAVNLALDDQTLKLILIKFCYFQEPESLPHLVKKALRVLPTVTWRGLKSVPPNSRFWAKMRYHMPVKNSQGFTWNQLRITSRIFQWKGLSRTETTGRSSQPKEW


Biological target: T1, IL-18 receptor (IL-18Rα/IL-18Rβ) …
Experiment: cell-based or functional assay

Row | HEK-Blue IL-18: Abs 405 at 100 nM | HEK-Blue IL-18: Fold over Background | Binder
1 | 2 Abs | 8.7 fold | DGL209 (bispecific antibody) heavy 1: QVQLVESGGGLVQAGGSLRLSCAASGRTFSKHAMGWFRQAPGKEREFVAAIDWSGGSTYYADSVKGRFTISRDNAKNTVYLQMDSLKPEDTAVYYCAADSYTDYAQLWLPELESEYDYWGQGTLVTVSSPLAPCPPCPAPEAAGAPSVFLFPPKPKDTLMISRTPEVTCVVVDVSHEDPEVKFNWYVDGVEVHNAKTKPREEQYNSTYRVVSVLTVLHQDWLNGKEYKCKVSNKALPAPIEKTISKAKGQPREPQVCTLPPSRDELTKNQVSLSCAVKGFYPSDIAVEWESNGQPENNYKTTPPVLDSDGSFFLVSKLTVDKSRWQQGNVFSCSVMHEALHNHYTQKSLSLSPGWSHPQFEK heavy 2: QLQLVESGGGLVQAGGSLRLSCAASRSITFSHNVMGWYRQAPGKQRELVASIGSGGSTNYVDSVKGRATISRDNAKKTVYLQMNSLKPEDTAVYYCGVVVGVYRGSLGQGTLVTVSSPLAPCPPCPAPEAAGAPSVFLFPPKPKDTLMISRTPEVTCVVVDVSHEDPEVKFNWYVDGVEVHNAKTKPREEQYNSTYRVVSVLTVLHQDWLNGKEYKCKVSNKALPAPIEKTISKAKGQPREPQVYTLPPCRDELTKNQVSLWCLVKGFYPSDIAVEWESNGQPENNYKTTPPVLDSDGSFFLYSKLTVDKSRWQQGNVFSCSVMHEALHNHYTQKSLSLSPGEPEA
2 | 1.1 Abs | 4.6 fold | DGL210 (bispecific antibody) heavy 1: QVQLVESGGGLVQAGGSLRLSCAASGRTFSKHAMGWFRQAPGKEREFVAAIDWSGGSTYYADSVKGRFTISRDNAKNTVYLQMDSLKPEDTAVYYCAADSYTDYAQLWLPELESEYDYWGQGTLVTVSSGGGGSGGGGSGGGGSGGGGSCPPCPAPEAAGAPSVFLFPPKPKDTLMISRTPEVTCVVVDVSHEDPEVKFNWYVDGVEVHNAKTKPREEQYNSTYRVVSVLTVLHQDWLNGKEYKCKVSNKALPAPIEKTISKAKGQPREPQVCTLPPSRDELTKNQVSLSCAVKGFYPSDIAVEWESNGQPENNYKTTPPVLDSDGSFFLVSKLTVDKSRWQQGNVFSCSVMHEALHNHYTQKSLSLSPGWSHPQFEK heavy 2: QLQLVESGGGLVQAGGSLRLSCAASRSITFSHNVMGWYRQAPGKQRELVASIGSGGSTNYVDSVKGRATISRDNAKKTVYLQMNSLKPEDTAVYYCGVVVGVYRGSLGQGTLVTVSSGGGGSGGGGSGGGGSGGGGSCPPCPAPEAAGAPSVFLFPPKPKDTLMISRTPEVTCVVVDVSHEDPEVKFNWYVDGVEVHNAKTKPREEQYNSTYRVVSVLTVLHQDWLNGKEYKCKVSNKALPAPIEKTISKAKGQPREPQVYTLPPCRDELTKNQVSLWCLVKGFYPSDIAVEWESNGQPENNYKTTPPVLDSDGSFFLYSKLTVDKSRWQQGNVFSCSVMHEALHNHYTQKSLSLSPGEPEA
3 | 1.4 Abs | 5.9 fold | DGL208 (bispecific antibody) heavy 1: QVQLVESGGGLVQAGGSLRLSCAASGRTFSKHAMGWFRQAPGKEREFVAAIDWSGGSTYYADSVKGRFTISRDNAKNTVYLQMDSLKPEDTAVYYCAADSYTDYAQLWLPELESEYDYWGQGTLVTVSSPLAPDKTHTCPPCPAPEAAGAPSVFLFPPKPKDTLMISRTPEVTCVVVDVSHEDPEVKFNWYVDGVEVHNAKTKPREEQYNSTYRVVSVLTVLHQDWLNGKEYKCKVSNKALPAPIEKTISKAKGQPREPQVCTLPPSRDELTKNQVSLSCAVKGFYPSDIAVEWESNGQPENNYKTTPPVLDSDGSFFLVSKLTVDKSRWQQGNVFSCSVMHEALHNHYTQKSLSLSPGWSHPQFEK heavy 2: not shown

Biological target: T1, IL-18 receptor (IL-18Rα/IL-18Rβ) …
Experiment: cell-based or functional assay
Remark: another data set of the same source

Row | Binder | HEK-Blue IL-18: Abs405 (Emax) | HEK-Blue IL-18: EC50
4 | DGL079 (bispecific antibody, V domains shown) V domain 1: EVQLVESGGGLVQAGGSLRLSCAASGRTFSNYDMGWFRQAPEKEREFVAVISGPGGIAFYGDSVKGRFTISRDNTKNTVYLQMNRLKSEDTAVYYCAAAPRGSYYRRTNSYDYWGQGTQVTVSS V domain 2: EVQLVESGGGVAQAGGSLRLSCAASITSFSLNTMGYYRQLPGKQRELVAVESSSGITNYADSVKGRFTISRDGAKNTVFLQMNSLTPEDTAVYYCGGKLFGRDFWGQGTQVTVSS | 0.32 Abs | 0.017 nM
5 | DGL082 (bispecific antibody, V domains shown) V domain 1: EVQLVESGGGLVQPGGSLRLSCAASGSIFSINAMGWYRQAPGKQREVVATSTGGGMTNYADSVKGRFTISRDNAKNTVYLQMNSLKPEDTAVYYCNADKDPFFPGDYWGQGTQVTVSS V domain 2: QVQLVESGGGLVQAGGSLRLSCAASGRSVSENDVRWYRQAPRKQREWVAAITSSGITGYADSVRIRFTISRDLAKNTVYLQMNSLKPEDTAVYYCYMTDQYWGQGTQVTVSS | 0.47 Abs | 0.012 nM
6 | DGL090 (bispecific antibody, V domains shown) V domain 1: EVQLVESGGGLVQPGGSLRLSCAASGFFLDDYVLGWFRQAPGKPREGVSCISSRGRYLNYAETVKGRFTISRSNAKNTVYLQMNNLEPEDTAVYYCAAVRRVSEVCKLAEDDFASWGQGTQVTVSS V domain 2: QVQLQESGGGLVQAGGSLKLSCQASGLTFKRNTMGWFRQAPGKEREFVAHFLWTGGETDYADAVKGRFTISRDNAKNTVYLQMNSLKPEDTAVYFCAANYAGYRIDGYQYWGQGTQVTVSS | 0.26 Abs | 0.033 nM
7 | DGL049 (bispecific antibody, V domains shown) V domain 1: QVQLQESGGGLVQAGGSLRLSCIVSGSIVRIDFMGWYRQAPGKKRDMVATITTGGSTNYADSVKDRFTISRDNAKNTLSLQVNDLKPEDTAVYYCNSVVHTTSRPPVLYWGQGTQVTVSS V domain 2: QVQLVESGGDLVLPGGSLKLSCEASGSISSRNSMAWYRRAPGKQRELVAAISSISSGGRTDYADFVKGRFTIFRDTAKNMVYLQMNNLKPEDTAVYDCDDPIRVASLAYDDWGQGTQVTVSS | 0.34 Abs | 0.01 nM
8 | DGL091 (bispecific antibody, V domains shown) V domain 1: QVQLVESGGGLVQAGGSLRLSCAASGRTFSKHAMGWFRQAPGKEREFVAAIDWSGGSTYYADSVKGRFTISRDNAKNTVYLQMDSLKPEDTAVYYCAADSYTDYAQLWLPELESEYDYWGQGTQVTVSS V domain 2: QVQLVESGGGLVQAGDSLRLSCVASERTFSSYTMGWFRQAPGKEREFTAALSWWNGGISTAYADSVKGRFTISRDNAKNTVYLQMNSLKTEDTALYYCAAARDRMPRADEYDYWGQGTQVTVSS | 0.35 Abs | 0.032 nM
9 | DGL092 (bispecific antibody, V domains shown) V domain 1: QVQLVESGGGLVQAGGSLRLSCAASGRTFSKHAMGWFRQAPGKEREFVAAIDWSGGSTYYADSVKGRFTISRDNAKNTVYLQMDSLKPEDTAVYYCAADSYTDYAQLWLPELESEYDYWGQGTQVTVSS V domain 2: EVQLVESGGGLVQAGGSLRLSCAASGRTFRNYHMGWFRQAPGQEREFVAAISSSGGKTSYPDSVNGRFTISRDNAKNTVYLQMNNLKVEDTAVYYCAADPRYWVAAGGSEPENVEVWGQGTLVTVSS | 0.61 Abs | 0.019 nM

The remaining lines, values ahead:

Row | HEK-Blue IL-18: Abs405 (Emax) | HEK-Blue IL-18: EC50 | Binder
10 | 0.7 Abs | 0.019 nM | DGL094 (bispecific antibody, V domains shown) V domain 1: QVQLVESGGGLVQAGGSLRLSCAASGRTFSSYTMGWFRQAPGKEREFVAAISWSAGRTYYADSVKGRFTISRDNAKNTVYLQMNSLKPEDTAVYFCAAEEAPDWAPIDCSGYGCLSLYDYWGQGTQVTVSS V domain 2: QVQLVESGGGLVLPGESLRLSCVVSGTIDNINSMGWYRQAPGKQRELVAYITKLGSANYADSVEGRFTISRDNAKKTVHLQMNSLKPEDTAVYYCHANERGRITWAQGTQVTVSS
11 | 0.45 Abs | 0.014 nM | DGL097 (bispecific antibody, V domains shown) V domain 1: QVQLVESGGGLVQAGGSLRLSCAASGRTFSSYDMGWFRQAPGKEREFVAALRWSGGSTSYADSVKGRFTISRDNAKNTVYLHMNSLKPEDTAVYYCAATLETDSGTYWADYWGQGTQVTVSS V domain 2: QVQLVESGGGLVQAGGSLRLSCVASGTFFQIHVMGWYRQAPGKQRELVAFIINNGGTRYADSVKGRFTISRDYAKNTVYLQMNSLKPEDTAVYYCNTEGTYRGRYSTDNWGQGTQVTVSS
